# From the supplement of paper PMC12042874
# ± gives the uncertainty stated by the source.
# Experiment: amyloid nucleation score (Sup35N fusion, yeast selection) (log enrichment); library NNK3; higher = more nucleation; inactive = no reads after selection
# In short: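 Psi-negative yeast expressed Sup35N fused to peptides of 20 random codons. They were induced 24 hours with 100 μM copper sulfate, grown 7 days at 30°C without adenine and uracil, and their plasmid inserts from input and output were Illumina-sequenced. The nucleation score is the DiMSum log enrichment of output over input reads, centred on the mode score of non-aggregating sequences. Sequences with under 100 input reads were excluded.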
row,Substance,amyloid nucleation score
1,VARPCFRERNHSPI,inactive
2,VARSSQSISSMHMTMRYKCA,inactive
3,VASSKQYLGTVTYLDGVA,inactive
4,VATKQVVQGLMSPNN,inactive
5,VCFFGLYVLKDN,inactive
6,VCHLWSLTVYGAVFQHLNFM,inactive
7,VCIVVGARGGGYVLRTPLRG,inactive
8,VCKVTFMCAFRHDYSKRYYG,0.35 ± 0.48
9,VCLCNIRDMAG,inactive
10,VCNSYCMPRPRILQSQGGMG,inactive
11,VCREGLRDSRSAGGFFSYII,inactive
12,VCSFCCFGTVRSL,2.1 ± 0.058
13,VCSLVLWSLSSWWTRYGTLR,inactive
14,VCSSINPFQNMTSFKVWIKS,inactive
15,VCTKWGQYFCPYPVLCGWVR,inactive
16,VCVVWNIVDQAYNMW,0.253 ± 0.34
17,VDETPSSHMSIPVMERVLCG,inactive
18,VDHGRD,inactive
19,VDIGYQMQGFLGICSDY,inactive
20,VDIVRVSCEALSLATDCQFL,inactive
21,VDNCIWLFLSTFYDGCVVML,inactive
22,VDNHACPWTGGLHFRKLWNG,inactive
23,VDNWFVFFYGYSGLLYGSHY,inactive
24,VDRVYTLREFEVHGGTWFGV,inactive
25,VDRYLCNFSGGTLYGSLSQD,inactive
26,VDVCITFCWIARLMV,inactive
27,VDYKLFNFDGVCITTVFVHY,2.24 ± 0.095

row,Substance,amyloid nucleation score
1,VEAEHYSRRNEKVFRSNMKW,inactive
2,VEELKYRHNALNFRKNVQSL,inactive
3,VEEYHNQ,0.858 ± 0.13
4,VEHDNKGISQAAVMFG,inactive
5,VEHFNGHTRTVGCLFKRDLR,inactive
6,VERHFAVDERP,-0.682 ± 2.5
7,VFECLTFF,-0.872 ± 1
8,VFESCEYSRQVVGNFRDEM,inactive
9,VFFAVF,inactive
10,VFGGNVIKSYVKITFQPGFD,2.22 ± 0.061
11,VFGKCLCTNCLEEVCIRFDL,inactive
12,VFKSSGPAVTSYWY,inactive
13,VFLACNYFILSRNDLKWGYP,2.56 ± 0.06
14,VFLILFVLPLFYLNDSPGCA,inactive
15,VFLVTSRVNIRCVVLHIINE,1.08 ± 0.11
16,VFMIVRQEGSSDFFFDFSSV,1.42 ± 0.11
17,VFNFFYAEMGLMIKFWIDNL,1.08 ± 0.081
18,VFNSSKDLVSEKEPLRYMIG,inactive
19,VFQRVNISVCINVVKFMSSM,1.65 ± 0.069
20,VFSDHVLSF,inactive
21,VFSKSLGI,inactive
22,VFTFFSMCMTPSYYPCRLAC,inactive
23,VFTPLCAYVVGYLYEVCGDD,inactive
24,VFVKCWNVGSCIATDEYMSE,2.2 ± 0.078
25,VFVTRYKTKTPCLMTVRKEL,inactive
26,VFWLKVSVSLFPVLYGRS,inactive
27,VFYGLYF,inactive

row,Substance,amyloid nucleation score
1,VGAHSYHVRTPDTES,0.221 ± 0.47
2,VGDVKAISVGCVGVLEFSAA,inactive
3,VGEVGGYGEFAE,inactive
4,VGGFFTSYKNYTK,0.671 ± 0.27
5,VGGFKTILSIRRAAKCLCVG,inactive
6,VGGYI,inactive
7,VGHSNNQFSGFEMCHDNTLL,inactive
8,VGLLVMSVGIERTLWE,inactive
9,VGNFSFD,0.845 ± 0.16
10,VGNLGS,inactive
11,VGNSHASIHPCKVICSLACD,inactive
12,VGQYDTFGLRHHGGYRMRRG,inactive
13,VGSGTQSWVRNEMRSMLDLW,inactive
14,VGSLVHLGLGWIRTLLLYGV,inactive
15,VHELIDHKMKMIGLVFGLSI,inactive
16,VHIYSCYTRALDGNGAHSNN,inactive
17,VHLNCCTVLKEVRLFT,0.78 ± 0.26
18,VHTYLSAEWLVFPRHFAVYK,inactive
19,VIARDDINCVRDGGQGLQIS,inactive
20,VICFFTTNAEHLQFLV,inactive
21,VIFTIHNGT,inactive
22,VIFVGFWQWYSYISELDCNP,inactive
23,VIGGVEREQQDRLKL,inactive
24,VIKSIWQSYGRKRSYLDMSI,inactive
25,VILMEDKSLMSWTRTIIVSM,inactive
